In US20180327803A1:

B1: R3-75 rabbit-derived single-chain antibody-His (scFv)
scFv: QSVKESGGRLVTPGTPLTLTCTVSGIDLSSNAMSWVRQAPGEGLEWIGTISTVGKTYFASWAKGRFTISKTSTTVDLRITSPTTEDTATYFCATRYDSYGYAYNYWFGTLWGPGTLVTVTSGGGGSGGGGSGGGGSELDLTQTPPSVSGAVGGTVTIKCQASENINSELAWYQQKPGQRPKLLIYDASKLASGVPSRFSGSGSGTEYTLTISGMQCDDAATYYCQSTYYDGNYVYAFGGGTEVDVTRSHHHHHH
B2: R1-7 (scFv, not shown: small tags and cut ends)
scFv: QSLEESGGRLVTPGTPLTLTCTVSGIDLRRYAMGWVRQAPGKGLQWIGIIASGNTDYASWAKGRFTISATSTTVDLKITSPTTEDTATYFCARYSGDNGGTLNLWGPGTLVTVTSGGGGSGGGGSGGGGSELVMTQTAASVSEPVGGTVTIKCQASQSISSYLAWYQQKPGQPPKLLIYAASNLASGVSSRFKGSGSGTEFTLTISDLECADAATYYCQSYYSISSYGNTFGGGTEVEITGS
B3: R2-18 rabbit-derived single-chain antibody-His (scFv)
scFv: QSLEESGGRLVTPGTPLTLTCTVSGIDLSSNAMTWVRQAPGEGLEWIGTISTGGSTYFASWAKGRFTISKTSTTVDLKITSPTTEDTATYFCATRYDSYGYAYNYWFGTLWGPGTLVTVTSGGGGSGGGGSGGGGSELVMTQTAASVSEPVGGTVTIKCQASQNINNELAWYQQKPGQRPKLLIYDASKLASGVPSRFSGSGSGTEFTLTISGMQCDDAATYYCQSTYYDGNYVYAFGGGTEVDVKGSHHHHHH
B4: R2-16 rabbit-derived single-chain antibody-His (scFv)
scFv: QSVKESGGRLVTPGTPLTLTCTVSGFSLSSYAMGWVRQAPGKGLEYIGIISSSGSTYYASWAKGRFTISKTSTTVDLKITSPTTEDTATYFCARYSGDNGGALNLWGPGTLVTVTSGGGGSGGGGSGGGGSELDLTQTAASVSEPVGGTVTISCQSSQHIRSYLAWYQQKPGQPPKLLISAASTLASGVSSRFKGSGSGTEFTLTISDLECADAATYYCQRYYDIRNYGNGFGGGTEVEITGSHHHHHH
B5: R1-27 rabbit-derived single-chain antibody-His (scFv)
scFv: QQQLMESGGGLVTPGTPLTLTCTVSGIDLRRYAMGWVRQAPGKGLQWIGIIASGNTDYASWAKGRFTISATSTTVDLKITSSTTEDTATYFCARYSGDNGGTLNLWGPGTLATVTTGGGGSGGGGSGGGGSELVMTQTAASVSEPVGGTVTIKCQASEHIRNYLAWYQQKPGQPPKLLIYTTSNLASGVPSRFSGSGSGTEYTLTISDLECADAATYYCQNYYDISTYGNTFGGGTEVDVKGSHHHHHH
B6: R1-7 rabbit-derived single-chain antibody-His (scFv)
scFv: QSLEESGGRLVTPGTPLTLTCTVSGIDLRRYAMGWVRQAPGKGLQWIGIIASGNTDYASWAKGRFTISATSTTVDLKITSPTTEDTATYFCARYSGDNGGTLNLWGPGTLVTVTSGGGGSGGGGSGGGGSELVMTQTAASVSEPVGGTVTIKCQASQSISSYLAWYQQKPGQPPKLLIYAASNLASGVSSRFKGSGSGTEFTLTISDLECADAATYYCQSYYSISSYGNTFGGGTEVEITGSHHHHHH
B7: R3-23 rabbit-derived single-chain antibody-His (scFv)
scFv: QSVKESEGRLVTPGTPLTLTCTVSGFSLSRYAVSWVRQAPGKGLEWIGIIGSGGSTSYATWARGRFTISKTSTTVDLKITSPTTEDTVTYFCGSYYDSHGYAYVSLWGPGTLVTVTSGGGGSGGGGSGGGGSELVLTQTPSPVSGAVGGTVTINCQASQSISTALAWYQQKPGQPPKLLIYSASTLASGVSSRFKGSGSGTGFTLTISDLECADAATYYCQSYYGSSSDNAFGGGTEVVIKRSHHHHHH

Experiments:
[1] = biological target: human IgG1 antibody (#I5154; Sigma-Aldrich) (human); assay: SPR, single cycle kinetics, IgG1 chip
[2] = biological target: human serum-derived IgG polyclonal antibody (#I4506; Sigma-Aldrich) (human); assay: SPR, lysate, human IgG chip
[3] = biological target: human IgG1 antibody (#I5154; Sigma-Aldrich) (human); assay: ELISA

| Kd [1] [nM] | koff [1] [s⁻¹] | kon [1] [M⁻¹ s⁻¹] | koff [2] [s⁻¹] | OD [3] | Binder |
| --- | --- | --- | --- | --- | --- |
| 0.55 | 3.7e-05 | 67000 |  |  | B1 |
|  |  |  | 0.00175 | 3.12 | B2 |
| 4.8 | 0.00012 | 25000 |  |  | B3 |
| 2.5 | 0.00032 | 130000 |  |  | B4 |
| 40 | 0.0004 | 9900 |  |  | B5 |
| 24 | 0.0017 | 71000 |  |  | B6 |
| 11 | 0.00013 | 11000 |  |  | B7 |
